# According to patent US20190170753A1 (ICAHN SCHOOL OF MEDICINE AT MOUNT SINAI, published 2019):
# Where no end group is shown, it is not given here.
# T1: Mut1T110N biotin labeled HCV core peptide (hepatitis C virus, biotin labeled (position not given))
# T1 peptide: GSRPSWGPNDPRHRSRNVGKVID
# T2: 92-133 biotin labeled HCV core peptide (hepatitis C virus, UniProt Q9WMX2 92-133, chain 1: biotin label (bt-pep). Its position and any spacer are not visible in the passages shown.)
# T2 construct: Only the label 92-133 is printed
# T2 peptide: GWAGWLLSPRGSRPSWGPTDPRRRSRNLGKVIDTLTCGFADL
# T3: C113WT biotin labeled HCV core peptide (hepatitis C virus, also: biotin labeled, position not given here)
# T3 peptide: RGSRPSWGPTD
# T4: C113T109N biotin labeled HCV core peptide (hepatitis C virus, also: biotin labeled, position not given here)
# T4 construct: also called C113T110N
# T4 peptide: RGSRPSWGPND
# T5: WT1STHV biotin labeled HCV core peptide (hepatitis C virus, biotin labeled (position not given))
# T5 peptide: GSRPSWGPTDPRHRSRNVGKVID
# B1: Neo4 mouse monoclonal antibody (antibody, V domains shown)
# VH: QIQLKESGPAVIKPSQSLSLTCIVSGFSITSSVYCWQWIRQPPGKGLEWMGRICYDGSVDYSPSITSRGTISRDTSLNKVFFQLSSVTNEDTAMYYCSRENHIDYYDTTYPSFDVWGAGTTVTVSS
# VL: DIVLTQSPASLIVSLGQRATISCRASKSVNEYGYTYMHWYQQKPGLPPKLLIYLASNLDSGVPARFSGSGSGTDFTLNIHPVEEEDAATYYCQHSRELPYTFGGGTKLEIKR
# notes: Mouse hybridoma antibody, isotype IgG1, purified with Protein G; also called HCV Neo4
# How the values were obtained:
# [1] = biological target: T1, Mut1T110N biotin labeled HCV core …; assay: capture EIA; Ab 3.906 ng/mL; bt-peptide 500 ng/mL
# Protocol: (§1) Assay wells were coated with sheep anti-mouse IgG Fc specific antibody and incubated overnight. The coating solution was then removed; the wells blocked using BSA/tween in PBS and then washed with dH2O. […] Next, biotin labeled peptides (diluted to 500 ng/mL in block) were added, the plates incubated for 10 minutes while shaking at 700 rpm and then washed. Peroxidase conjugated streptavidin (diluted to 200 ng/mL in block) was then added to all assay wells, incubated for 20 minutes while shaking at 700 rpm and then washed. Finally, color was developed using OPD and signal quenched using 1N H₂SO₄. Signal was read at 492 nm.
# [2] = biological target: T2, 92-133 biotin labeled HCV core peptide; assay: capture EIA; Ab 3.906 ng/mL; bt-peptide 500 ng/mL
# Protocol: as §1
# [3] = biological target: T3, C113WT biotin labeled HCV core peptide; assay: capture EIA; Ab 3.906 ng/mL; bt-peptide 500 ng/mL
# Protocol: as §1
# [4] = biological target: T6, Mut6T110S biotin labeled HCV core peptide (hepatitis C virus, biotin labeled (position not given)); assay: capture EIA; Ab 3.906 ng/mL; bt-peptide 500 ng/mL
# [5] = biological target: T4, C113T109N biotin labeled HCV core …; assay: capture EIA; Ab 250 ng/mL; bt-peptide 500 ng/mL
# Protocol: as §1
# [6] = biological target: T1, Mut1T110N biotin labeled HCV core …; assay: capture EIA; Ab 250 ng/mL; bt-peptide 500 ng/mL
# Protocol: as §1
# [7] = biological target: T2, 92-133 biotin labeled HCV core peptide; assay: capture EIA; Ab 250 ng/mL; bt-peptide 500 ng/mL
# Protocol: as §1
# [8] = biological target: T3, C113WT biotin labeled HCV core peptide; assay: capture EIA; Ab 250 ng/mL; bt-peptide 500 ng/mL
# Protocol: as §1
# [9] = biological target: T5, WT1STHV biotin labeled HCV core peptide; assay: capture EIA; Ab 250 ng/mL; bt-peptide 500 ng/mL
# Protocol: as §1
# [10] = biological target: T6, Mut6T110S biotin labeled HCV core …; assay: capture EIA; Ab 250 ng/mL; bt-peptide 500 ng/mL
# Protocol: as §1
# [11] = biological target: T4, C113T109N biotin labeled HCV core …; assay: capture EIA; Ab 1000 ng/mL; bt-peptide 500 ng/mL
# Protocol: as §1
# [12] = biological target: T1, Mut1T110N biotin labeled HCV core …; assay: capture EIA; Ab 1000 ng/mL; bt-peptide 500 ng/mL
# Protocol: as §1
# [13] = biological target: T2, 92-133 biotin labeled HCV core peptide; assay: capture EIA; Ab 1000 ng/mL; bt-peptide 500 ng/mL
# Protocol: as §1
# [14] = biological target: T3, C113WT biotin labeled HCV core peptide; assay: capture EIA; Ab 1000 ng/mL; bt-peptide 500 ng/mL
# Protocol: as §1
# [15] = biological target: T5, WT1STHV biotin labeled HCV core peptide; assay: capture EIA; Ab 1000 ng/mL; bt-peptide 500 ng/mL
# Protocol: as §1
# [16] = biological target: T6, Mut6T110S biotin labeled HCV core …; assay: capture EIA; Ab 1000 ng/mL; bt-peptide 500 ng/mL
# Protocol: as §1
binder,measurement,setting,value
B1,signal at 492 nm,[1],0.0719 A492
same,signal at 492 nm,[2],0.217 A492
same,signal at 492 nm,[3],0.0694 A492
same,signal at 492 nm,[4],0.0847 A492
same,signal at 492 nm,[5],0.111 A492
same,signal at 492 nm,[6],0.089 A492
same,signal at 492 nm,[7],1.4 A492
same,signal at 492 nm,[8],0.0607 A492
same,signal at 492 nm,[9],1.99 A492
same,signal at 492 nm,[10],1.15 A492
same,signal at 492 nm,[11],0.0591 A492
same,signal at 492 nm,[12],0.0678 A492
same,signal at 492 nm,[13],1.41 A492
same,signal at 492 nm,[14],0.222 A492
same,signal at 492 nm,[15],2 A492
same,signal at 492 nm,[16],1.17 A492
